Results published in US11648290B2, “Cartilage-homing peptides” (FRED HUTCHINSON CANCER CENTER, priority 2015, dated 2023).

Legend:
[1] = tested on: cartilage (IVD, knee / synovial joints); assay: Whole body autoradiography (WBA) of radiolabeled cartilage homing peptides (Example 21); assay type: in vivo, Female Harlan athymic nude mice; details: for Signal in IVD as a percentage of signal in blood: 100 nmol
Experimental: This example illustrates peptide homing to cartilage mice 5 minutes to 48 hours after administration of a radiolabeled peptide. Signal from the radiolabeled peptides was found in all types of cartilage at each time point examined. Each peptide was radiolabeled by methylating […] as described in EXAMPLE 2. As such, the peptide may contain methyl or dimethyl lysines and a methylated or dimethylated amino terminus. A dose of 100 nmol radiolabeled peptide was administered via tail vein injection in Female Harlan athymic nude mice, weighing 20-25 g. The experiment was done in duplicate (n=2 animals per group). In some animals, kidneys were ligated to prevent renal filtration of the radiolabeled peptides and extend plasma half-life. Each radiolabeled peptide was allowed to freely circulate within the animal for the described time period before the animals were euthanized and sectioned.
Whole body autoradiography (WBA) sagittal sectioning was performed as follows. […] Sections were allowed to desiccate in a freezer prior to imaging.
For the autoradiography imaging, tape mounted thin sections were freeze dried and radioactive samples were exposed to phophoimager plates for 7 days.

pepsin, trypsin = assay: HPLC after exposure to oxidative, reductive, acidic conditions and proteinases (FIG. 72); assay type: in vitro ADME; details: pH 1 / SGF pH 1.05, 10 mM DTT, 500 U pepsin, 50 U trypsin
Experimental: FIG. 72 illustrates HPLC chromatograms of peptides of SEQ ID NO: 111 and SEQ ID NO: 434 after exposure to a range of conditions including oxidative, reductive, and acidic conditions as well as after exposure to proteinases. FIG. 72A illustrates the HPLC trace of a peptide of SEQ ID NO: 111 under reducing and acidic conditions. FIG. 72B illustrates the HPLC trace of a peptide of SEQ ID NO: 111 under various combinations of reducing agents and proteases including 10 mM DTT in 500 U pepsin, 500 U pepsin, 10 mM DTT in 50 U trypsin, and 50 U trypsin. FIG. 72C illustrates the HPLC trace of a peptide of SEQ ID NO: 434 under various protease conditions including in 500 U pepsin, in 50 U trypsin, non-reducing (NR, oxidized conditions) in simulated gastric fluid (SGF) at pH 1.05, and NR.
FIG. 72 illustrates HPLC chromatograms of peptides of SEQ ID NO: 111 and SEQ ID NO: 434 after exposure to a range of conditions including oxidative, reductive, and acidic conditions as well as after exposure to proteinases. The peptide of SEQ ID NO: 434 is a linearized version of the knottin peptide of SEQ ID NO: 111. The peptide of SEQ ID NO: 434 has the same amino acid sequence as the knottin peptide of SEQ ID NO: 111, but with all cysteines mutated to serines. FIG. 72A illustrates the HPLC trace of a peptide of SEQ ID NO: 111 under reducing and acidic conditions. […]

cartilage [2] = assay: Cartilage homing, no method given; details: in vivo
[3] = Peptide resistance to reducing agents (10 mM DTT, RP-HPLC); assay type: physicochemical; details: 10 mM DTT in PBS, room temperature, 30 minutes
Experimental: Several peptides were suspended in 500 μl of ddH2O to a stock concentration of 2 mg/ml. Reactions were prepared by adding 12.5 μg peptide from the stock solution to a 10 mM solution of DTT in PBS and allowed to incubate at room temperature for 30 minutes. RP-HPLC was run on samples using an Agilent 1260 HPLC equipped with a C-18 Poroshell 120B column. Samples were analyzed by a gradient method with a mobile phase of Solvent A (water with 0.1% TFA) and Solvent B (acetonitrile with 0.1% TFA). Solvent B was ramped up from 5%-45% of the mobile phase over a period of 10 minutes.
Peptides were fractionated by HPLC and without any further sample prep, 5 μl of the sample was injected into the mass spectrometer at 1 mg/ml using a CTCPAL® autosampler. Alternatively, if peptides were provided as a lyophilized powder, the sample was dissolved in 100% water to a concentration of 1 mg/ml a Millipore Ziptip C18® column was used to desalt the peptides prior to injection for ES-MS. The mass spectrometer was calibrated using 5 pmol of mixture of five standard peptides to achieve a high accuracy of mass determination with less than a 10 ppm error. Confirmation of peptide disulfide bond formation was achieved by analyzing the m/z isotopic distribution and the exact charge. All peptides tested are shown under reducing and non-reducing conditions.

cartilage [4] = details: for Cartilage (C): percentage of signal in the cartilage compared to the blood signal in the heart ventricle / Muscle (M): signal compared to the level in the blood: 3 hours after administration, ligated kidneys, 14C-labelled peptide, tail vein
Experimental: This example describes a dosing scheme for administering knottin peptides to mice in conjunction with kidney ligation. Different dosages of the peptides were administered to Female Harlan athymic nude mice, weighing 20 g-25 g, via tail vein injection (n=2 mice per knottin). The experiment was done in duplicates. The kidneys were ligated to prevent renal filtration of the peptides. Each peptide was radiolabeled by methylating lysines and the N-terminus, so the actual binding agent may contain methyl or dimethyl lysine(s) and a methylated or dimethylated amino terminus.
A target dosage of 50-100 nmol of each peptide carrying 10-25 uCi of ^14C was administered to Female Harlan athymic nude mice while anesthetized. Each peptide was allowed to freely circulate within the animal before the animals were euthanized and sectioned.
This example illustrates peptide homing to cartilage of mice with kidneys that were ligated prior to peptide administration. At the end of the dosing period in EXAMPLE 3, mice were frozen in a hexane/dry ice bath and then frozen in a block of carboxymethylcellulose. […] Thin, frozen sections of animal including imaging of tissues such as brain, tumor, liver, kidney, lung, heart, spleen, pancreas, muscle, adipose, gall bladder, upper gastrointestinal tract, lower gastrointestinal tract, bone, bone marrow, reproductive track, eye, cartilage, stomach, skin, spinal cord, bladder, salivary gland, and other types of tissues were obtained with a microtome, allowed to desiccate in a freezer, and exposed to phosphoimager plates for about ten days.
These plates were developed, and the signal (densitometry) from each organ was normalized to the signal found in the heart blood of each animal. A signal in tissue darker than the signal expected from blood in that tissue indicates peptide accumulation in a region, tissue, structure or cell. For instance, the cartilage is avascular and contains minute amounts of blood. A ratio of at least 170% signal in the cartilage versus heart ventricle was chosen as a reference level for significant targeting to cartilage, which also correlated with clear accumulation in cartilaginous tissues in the images of the slices.
The SEQ ID NO: 24 peptide was radiolabeled as in Example 3 and 100 nmol of peptide was injected into a mouse with intact kidneys. FIG. 5 illustrates the retention of and the tissue distribution in the cartilage of a peptide of SEQ ID NO: 24, 24 hours after administration.

[5] = Temperature stability of peptides (RP-HPLC); assay type: physicochemical
Experimental: This example illustrates peptide stability at high temperatures. Peptides were first suspended in 500 μl of ddH2O to a stock concentration of 2 mg/ml. Reactions were prepared by adding 6.25 μl of peptide from the stock solution with 95 μl ddH2O and incubated at room temperature, 70° C., or 100° C. for one hour in a Thermocycler. RP-HPLC was then run on samples using an Agilent 1260 HPLC equipped with a C-18 Poroshell 120B column. Sample were analyzed by a gradient method with a mobile phase of Solvent A (water with 0.1% TFA) and Solvent B (acetonitrile with 0.1% TFA). Solvent B was ramped up from 5%-45% of the mobile phase over a period of 10 minutes.
Peptides of SEQ ID NO: 28 and SEQ ID NO: 483 were analyzed by HPLC after incubation at room temperature (25° C.), 70° C., or 100° C. for one hour.

GSGVPINVRSRGSRDSLDPSRRAGMRGRSINSRSHSTP [SEQ ID NO: 434, reference compound]
Cartilage homing (qualitative, WBA) ([1]; 100 nmol radiolabeled peptide): homed to cartilage to a much lesser extent than the folded knotted peptide
Signal in IVD as a percentage of signal in blood ([1]; 3 hr Intact Kidneys): 177%
Signal in IVD as a percentage of signal in blood ([1]; 3 hr Ligated Kidneys): 117%
Signal in IVD as a percentage of signal in blood ([1]; 24 hr Intact Kidneys): 104%
Resistance to degradation (FIG. 72) (pepsin, trypsin): more susceptible to degradation at these different conditions

GSGDCLPHLKRCKENNDCCSKKCKRRGANPEKRCR [SEQ ID NO: 205]
Cartilage homing (cartilage [2]): home to cartilage

GSSEKDCIKHLQRCRENKDCCSKKCSRRGTNPEKRCR [SEQ ID NO: 22]
Cartilage homing (cartilage [2]): home to cartilage

GSQKILSNRCNNSSECIPHCIRIFGTRAAKCINRKCYCYP [SEQ ID NO: 196]
HPLC peaks under non-reducing versus reducing conditions (resistance to reduction by DTT) [3]: Peaks showing the peptide under non-reducing conditions and reducing conditions are overlapping

VFINVKCRGSPECLPKCKEAIGKSAGKCMNGKCKCYP [SEQ ID NO: 422]
Cartilage homing (cartilage [2]): homes to cartilage

196 (GSQKILSNRCNNSSECIPHCIRIFGTRAAKCINRKCYCYP) [compound 196]
Cartilage (C): percentage of signal in the cartilage compared to the blood signal in the heart ventricle (cartilage [4]): 291%
Muscle (M): signal compared to the level in the blood (cartilage [4]): 30%

21 (GSGIVCKVCKIICGMQGKKVNICKAPIKCKCKKG) [compound 21]
Cartilage (C): percentage of signal in the cartilage compared to the blood signal in the heart ventricle (cartilage [4]): 270%
Muscle (M): signal compared to the level in the blood (cartilage [4]): 36%

31 (GSGCLEFWWKCNPNDDKCCRPKLKCSKLFKLCNFSFG) [compound 31]
Cartilage (C): percentage of signal in the cartilage compared to the blood signal in the heart ventricle (cartilage [4]): 306%
Muscle (M): signal compared to the level in the blood (cartilage [4]): 68%

28 (GSEVIRCSGSKQCYGPCKQQTGCTNSKCMNKVCKCYGCG) [compound 28]
Cartilage (C): percentage of signal in the cartilage compared to the blood signal in the heart ventricle (cartilage [4]): 361%
Muscle (M): signal compared to the level in the blood (cartilage [4]): 17%

26 (GSISCTGSKQCYDPCKRKTGCPNAKCMNKSCKCYGCG) [compound 26]
Cartilage (C): percentage of signal in the cartilage compared to the blood signal in the heart ventricle (cartilage [4]): 413%
Muscle (M): signal compared to the level in the blood (cartilage [4]): 38%

29 (GSACKGVFDACTPGKNECCPNRVCSDKHKWCKWKL) [compound 29]
Cartilage (C): percentage of signal in the cartilage compared to the blood signal in the heart ventricle (cartilage [4]): 243%
Muscle (M): signal compared to the level in the blood (cartilage [4]): 26%

27 (GSQVQTNVKCQGGSCASVCRREIGVAAGKCINGKCVCYRN) [compound 27]
Cartilage (C): percentage of signal in the cartilage compared to the blood signal in the heart ventricle (cartilage [4]): 448%
Muscle (M): signal compared to the level in the blood (cartilage [4]): 31%

GSKCLPPGKPCYGATQKIPCCGVCSHNNCT [SEQ ID NO: 433, reference compound]
Homing to cartilage (autoradiography, FIG. 11) (cartilage [4]; 24 hours after administration of 100 nmol): did not home to cartilage and was seen in the bone marrow

33 (GSGCFGYKCDYYKGCCSGYVCSPTWKWCVRPGPGR) [compound 33]
Cartilage (C): percentage of signal in the cartilage compared to the blood signal in the heart ventricle (cartilage [4]): 179%
Muscle (M): signal compared to the level in the blood (cartilage [4]): 28%

30 (GSQIYTSKECNGSSECYSHCEGITGKRSGKCINKKCYCYR) [compound 30]
Cartilage (C): percentage of signal in the cartilage compared to the blood signal in the heart ventricle (cartilage [4]): 221%
Muscle (M): signal compared to the level in the blood (cartilage [4]): 26%

GSEVIRCSGSKQCYGPCKQQTGCTNSKCMNKVCKCYGCG [SEQ ID NO: 28]
Stability after heat incubation (HPLC) ([5]; 70 C for 1 hour): resistant to heat-induced degradation
Stability after heat incubation (HPLC) ([5]; 100 C for 1 hour): underwent various degrees of degradation
